The target in this assay is endothelin-converting enzyme 1 (Ece1), monomer (mouse (endogenous in NMuMG and C2C12)). Nature of the assay: cross-linking.

A word on the stoichiometry N: it is the number of molecules, sites or subunits per partner or assembly.

endothelin-converting enzyme 1 (Ece1), monomer, sequence (Q4PZA2 whole entry): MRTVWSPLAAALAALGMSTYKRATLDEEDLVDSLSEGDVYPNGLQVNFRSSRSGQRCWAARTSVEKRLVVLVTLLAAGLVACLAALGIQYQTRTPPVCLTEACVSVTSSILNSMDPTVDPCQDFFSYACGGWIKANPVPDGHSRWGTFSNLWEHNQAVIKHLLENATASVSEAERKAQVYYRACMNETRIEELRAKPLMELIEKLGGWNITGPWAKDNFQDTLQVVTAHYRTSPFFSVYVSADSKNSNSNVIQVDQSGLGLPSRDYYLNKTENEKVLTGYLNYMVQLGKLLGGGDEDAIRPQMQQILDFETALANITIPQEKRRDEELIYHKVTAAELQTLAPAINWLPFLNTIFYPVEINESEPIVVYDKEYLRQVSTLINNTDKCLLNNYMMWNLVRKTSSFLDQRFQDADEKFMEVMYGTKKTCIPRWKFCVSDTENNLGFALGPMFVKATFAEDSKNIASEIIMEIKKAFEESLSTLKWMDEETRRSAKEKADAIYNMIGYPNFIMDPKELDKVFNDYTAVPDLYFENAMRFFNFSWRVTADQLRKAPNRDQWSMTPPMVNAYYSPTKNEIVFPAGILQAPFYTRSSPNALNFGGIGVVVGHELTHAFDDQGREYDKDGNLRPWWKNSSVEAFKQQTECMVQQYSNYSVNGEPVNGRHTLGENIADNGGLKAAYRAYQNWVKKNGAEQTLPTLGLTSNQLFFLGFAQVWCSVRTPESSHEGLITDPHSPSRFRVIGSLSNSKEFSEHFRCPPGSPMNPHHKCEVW

On to “endothelin-converting enzyme 1 (Ece1), monomer”, for which the stoichiometry N was determined as 2.

The record behind these values is article PMC5988664.
